Consider one molecule from patent US9221871 (NEW YORK UNIVERSITY, dated 2015).

In this assay the target is T1, His-tagged human Bcl-xL (human, UniProt Q07817 1-212).
T1 construct: Bought protein; also called Hiss-tagged human Bcl-xL; not shown: His tag
Put plainly: fluorescence polarization competition against fl-Bak, Kd by regression analysis. The procedure: The anisotropy experiments were performed with a DTX 880 Multimode Detector (Beckman) at 4° C., with excitation and emission wavelengths of 485 and 525 nm, respectively.
(In general: Polarisation of emitted light reports the rotation of a fluorescent probe.)

T1 sequence (Q07817 1-212): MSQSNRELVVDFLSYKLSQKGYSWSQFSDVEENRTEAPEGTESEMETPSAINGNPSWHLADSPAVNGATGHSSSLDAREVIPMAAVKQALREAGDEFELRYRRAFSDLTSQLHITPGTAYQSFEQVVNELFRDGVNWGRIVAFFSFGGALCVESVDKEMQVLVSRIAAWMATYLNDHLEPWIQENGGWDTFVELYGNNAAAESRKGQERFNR

B1: artificial Bak BH3 α-helix 10a (hydrogen bond surrogate, HBS) (peptide)
chain: QVGRQLAIIGDDINR
modifications: not fully specified; N-terminal Gly-72 replaced by a 4-pentenoic acid residue (alkene-bearing glycine mimic); Gly-75 is N-allyl-glycine; the two olefins are joined by ring-closing metathesis (carbon-carbon hydrogen bond surrogate, mixture of cis and trans alkene isomers); C-terminal amide
By Kd is commonly meant the equilibrium constant for the complex coming apart. Molecule B1 yielded a Kd of 325 nM.
